Results published in patent US20260209386A1 (MYTHIC THERAPEUTICS, published 2026).

T1: Human PTK7 Protein, His Tag (Acro Biosystems) (human, UniProt Q13308 31-704)
T1 construct: Bought His-tagged protein; also called CCK4; not shown: His tag
T1 sequence: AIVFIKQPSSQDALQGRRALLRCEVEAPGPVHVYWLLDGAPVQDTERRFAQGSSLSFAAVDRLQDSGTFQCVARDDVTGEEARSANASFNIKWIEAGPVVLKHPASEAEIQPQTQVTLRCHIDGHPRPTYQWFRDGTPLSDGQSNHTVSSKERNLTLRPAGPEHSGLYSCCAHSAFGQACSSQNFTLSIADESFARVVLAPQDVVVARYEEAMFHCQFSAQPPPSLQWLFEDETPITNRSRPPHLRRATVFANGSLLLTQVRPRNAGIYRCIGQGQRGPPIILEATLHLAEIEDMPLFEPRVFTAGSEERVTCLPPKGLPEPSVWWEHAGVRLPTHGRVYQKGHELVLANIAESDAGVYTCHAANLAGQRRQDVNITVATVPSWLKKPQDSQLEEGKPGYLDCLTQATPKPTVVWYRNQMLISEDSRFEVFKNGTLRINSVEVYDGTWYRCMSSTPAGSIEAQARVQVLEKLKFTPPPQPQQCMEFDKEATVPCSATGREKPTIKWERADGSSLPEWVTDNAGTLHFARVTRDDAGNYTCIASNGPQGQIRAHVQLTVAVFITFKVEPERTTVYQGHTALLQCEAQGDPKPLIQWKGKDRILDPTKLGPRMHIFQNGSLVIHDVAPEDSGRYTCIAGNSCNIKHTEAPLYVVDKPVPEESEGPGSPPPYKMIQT

B1: MYT11048 (antibody, V domains shown)
VH: EVQLVESGGGLVQPGGSLRLSCTASGLSLSSYWMSWVRQAPGKGLEWVGVISAGGNTYYAHWAKGRFTISRDTSKNTVYLQMNSLRAEDTAVYFCARGDDGYTNAAYVSNLWGQGTLVTVSS
VL: EIVMTQSPSTLSASVGDRVIITCQASQSISSWLSWYQQKPGKAPKLLIYKASTLASGVPSRFSGSGSGAEFTLTISSLQPDDFATYYCQSYFDSTTIAFGQGTKLTVL
notes: MYT9361 HC variant
B2: MYT11060 (antibody, V domains shown)
VH: EVQLVESGGGLVQPGGSLRLSCTASGLSLSSYWMSWVRQAPGKGLEWVGVISAGGNTYYANWAKGRFTISRDTSKNTVYLQMNSLRAEDTAVYFCARGDDGYHNAAYVSNLWGQGTLVTVSS
VL: EIVMTQSPSTLSASVGDRVIITCQASQSISSWLSWYQQKPGKAPKLLIYKASTLASGVPSRFSGSGSGAEFTLTISSLQPDDFATYYCQSYFDSTTIAFGQGTKLTVL
notes: MYT9361 HC variant
B3: MYT11065 (antibody, V domains shown)
VH: EVQLVESGGGLVQPGGSLRLSCTASGLSLSSYWMSWVRQAPGKGLEWVGVISAGGNTYYANWAKGRFTISRDTSKNTVYLQMNSLRAEDTAVYFCARGDDGYTNAAYHSNLWGQGTLVTVSS
VL: EIVMTQSPSTLSASVGDRVIITCQASQSISSWLSWYQQKPGKAPKLLIYKASTLASGVPSRFSGSGSGAEFTLTISSLQPDDFATYYCQSYFDSTTIAFGQGTKLTVL
notes: MYT9361 HC variant
B4: MYT11064 (antibody, V domains shown)
VH: EVQLVESGGGLVQPGGSLRLSCTASGLSLSSYWMSWVRQAPGKGLEWVGVISAGGNTYYANWAKGRFTISRDTSKNTVYLQMNSLRAEDTAVYFCARGDDGYTNAAHVSNLWGQGTLVTVSS
VL: EIVMTQSPSTLSASVGDRVIITCQASQSISSWLSWYQQKPGKAPKLLIYKASTLASGVPSRFSGSGSGAEFTLTISSLQPDDFATYYCQSYFDSTTIAFGQGTKLTVL
notes: MYT9361 HC variant
B5: MYT11055 (antibody, V domains shown)
VH: EVQLVESGGGLVQPGGSLRLSCTASGLSLSSYWMSWVRQAPGKGLEWVGVISAGGNTYYANWAKGRFTISRDTSKNTVYLQMNSLRAEDTAVYFCARHDDGYTNAAYVSNLWGQGTLVTVSS
VL: EIVMTQSPSTLSASVGDRVIITCQASQSISSWLSWYQQKPGKAPKLLIYKASTLASGVPSRFSGSGSGAEFTLTISSLQPDDFATYYCQSYFDSTTIAFGQGTKLTVL
notes: MYT9361 HC variant
B6: MYT11066 (antibody, V domains shown)
VH: EVQLVESGGGLVQPGGSLRLSCTASGLSLSSYWMSWVRQAPGKGLEWVGVISAGGNTYYANWAKGRFTISRDTSKNTVYLQMNSLRAEDTAVYFCARGDDGYTNAAYVHNLWGQGTLVTVSS
VL: EIVMTQSPSTLSASVGDRVIITCQASQSISSWLSWYQQKPGKAPKLLIYKASTLASGVPSRFSGSGSGAEFTLTISSLQPDDFATYYCQSYFDSTTIAFGQGTKLTVL
notes: MYT9361 HC variant
B7: MYT11050 (antibody, V domains shown)
VH: EVQLVESGGGLVQPGGSLRLSCTASGLSLSSYWMSWVRQAPGKGLEWVGVISAGGNTYYANWHKGRFTISRDTSKNTVYLQMNSLRAEDTAVYFCARGDDGYTNAAYVSNLWGQGTLVTVSS
VL: EIVMTQSPSTLSASVGDRVIITCQASQSISSWLSWYQQKPGKAPKLLIYKASTLASGVPSRFSGSGSGAEFTLTISSLQPDDFATYYCQSYFDSTTIAFGQGTKLTVL
notes: MYT9361 HC variant
B8: MYT11051 (antibody, V domains shown)
VH: EVQLVESGGGLVQPGGSLRLSCTASGLSLSSYWMSWVRQAPGKGLEWVGVISAGGNTYYANWAHGRFTISRDTSKNTVYLQMNSLRAEDTAVYFCARGDDGYTNAAYVSNLWGQGTLVTVSS
VL: EIVMTQSPSTLSASVGDRVIITCQASQSISSWLSWYQQKPGKAPKLLIYKASTLASGVPSRFSGSGSGAEFTLTISSLQPDDFATYYCQSYFDSTTIAFGQGTKLTVL
notes: MYT9361 HC variant
B9: MYT11052 (antibody, V domains shown)
VH: EVQLVESGGGLVQPGGSLRLSCTASGLSLSSYWMSWVRQAPGKGLEWVGVISAGGNTYYANWAKHRFTISRDTSKNTVYLQMNSLRAEDTAVYFCARGDDGYTNAAYVSNLWGQGTLVTVSS
VL: EIVMTQSPSTLSASVGDRVIITCQASQSISSWLSWYQQKPGKAPKLLIYKASTLASGVPSRFSGSGSGAEFTLTISSLQPDDFATYYCQSYFDSTTIAFGQGTKLTVL
notes: MYT9361 HC variant
B10: MYT11061 (antibody, V domains shown)
VH: EVQLVESGGGLVQPGGSLRLSCTASGLSLSSYWMSWVRQAPGKGLEWVGVISAGGNTYYANWAKGRFTISRDTSKNTVYLQMNSLRAEDTAVYFCARGDDGYTHAAYVSNLWGQGTLVTVSS
VL: EIVMTQSPSTLSASVGDRVIITCQASQSISSWLSWYQQKPGKAPKLLIYKASTLASGVPSRFSGSGSGAEFTLTISSLQPDDFATYYCQSYFDSTTIAFGQGTKLTVL
notes: MYT9361 HC variant
B11: MYT11067 (antibody, V domains shown)
VH: EVQLVESGGGLVQPGGSLRLSCTASGLSLSSYWMSWVRQAPGKGLEWVGVISAGGNTYYANWAKGRFTISRDTSKNTVYLQMNSLRAEDTAVYFCARGDDGYTNAAYVSHLWGQGTLVTVSS
VL: EIVMTQSPSTLSASVGDRVIITCQASQSISSWLSWYQQKPGKAPKLLIYKASTLASGVPSRFSGSGSGAEFTLTISSLQPDDFATYYCQSYFDSTTIAFGQGTKLTVL
notes: MYT9361 HC variant
B12: MYT11057 (antibody, V domains shown)
VH: EVQLVESGGGLVQPGGSLRLSCTASGLSLSSYWMSWVRQAPGKGLEWVGVISAGGNTYYANWAKGRFTISRDTSKNTVYLQMNSLRAEDTAVYFCARGDHGYTNAAYVSNLWGQGTLVTVSS
VL: EIVMTQSPSTLSASVGDRVIITCQASQSISSWLSWYQQKPGKAPKLLIYKASTLASGVPSRFSGSGSGAEFTLTISSLQPDDFATYYCQSYFDSTTIAFGQGTKLTVL
notes: MYT9361 HC variant
B13: MYT11054 (antibody, V domains shown)
VH: EVQLVESGGGLVQPGGSLRLSCTASGLSLSSYWMSWVRQAPGKGLEWVGVISAGGNTYYANWAKGRFTISRDTSKNTVYLQMNSLRAEDTAVYFCAHGDDGYTNAAYVSNLWGQGTLVTVSS
VL: EIVMTQSPSTLSASVGDRVIITCQASQSISSWLSWYQQKPGKAPKLLIYKASTLASGVPSRFSGSGSGAEFTLTISSLQPDDFATYYCQSYFDSTTIAFGQGTKLTVL
B14: MYT11049 (antibody, V domains shown)
VH: EVQLVESGGGLVQPGGSLRLSCTASGLSLSSYWMSWVRQAPGKGLEWVGVISAGGNTYYANHAKGRFTISRDTSKNTVYLQMNSLRAEDTAVYFCARGDDGYTNAAYVSNLWGQGTLVTVSS
VL: EIVMTQSPSTLSASVGDRVIITCQASQSISSWLSWYQQKPGKAPKLLIYKASTLASGVPSRFSGSGSGAEFTLTISSLQPDDFATYYCQSYFDSTTIAFGQGTKLTVL
notes: MYT9361 HC variant
B15: MYT11062 (antibody, V domains shown)
VH: EVQLVESGGGLVQPGGSLRLSCTASGLSLSSYWMSWVRQAPGKGLEWVGVISAGGNTYYANWAKGRFTISRDTSKNTVYLQMNSLRAEDTAVYFCARGDDGYTNHAYVSNLWGQGTLVTVSS
VL: EIVMTQSPSTLSASVGDRVIITCQASQSISSWLSWYQQKPGKAPKLLIYKASTLASGVPSRFSGSGSGAEFTLTISSLQPDDFATYYCQSYFDSTTIAFGQGTKLTVL
notes: MYT9361 HC variant

Target: T1, Human PTK7 Protein, His Tag (Acro …)
Test: BLI (Octet), antibody on anti-human Fc sensor, 50 nM PTK7; grade 2 = substantially similar binding relative to parent

Binding result, binds:
B1
B2
B3
B4
B5
B6
B7
B8
B9
B10
B11
B12
B13
B14
B15
